# Data as given in publication PMC7652416, “Structural basis of ClpXP recognition and unfolding of ssrA-tagged substrates” (eLife, 2020).
# B1: E. coli ClpP (enzyme)
# chain: not shown
# notes: E. coli (strain K12) ClpP, UniProtKB P0A6G7; Double-ring tetradecamer of two heptameric rings; also called ClpP14; ClpP tetradecamer; source: recombinant (plasmid pT7 ClpP), purified as described (Kim et al., 2000; Bell et al., 2019); copies: 14
# Target: the molecule itself
# Experiment: cryo-EM structure; single-chain ClpX^∆N (4 µM), ClpP (1.8 µM), ATPγS (2.5 mM) in 20 mM HEPES pH 7.5, 100 mM KCl, 25 mM MgCl2, 5 min at 25°C; equal volume of GFP-G3YG9SENYALAA (20 µM) and ATP (2.5 mM) added; vitrified within 15 s of final mixing
protein,measurement,value
B1,stoichiometry N,14
